Changes are numbered by the printed parent chain. Where “and” joins values, the source holds several entries; their conditions need not be identical. Equal entries are not always repeated. Where two headings read alike, the source gives them in different places.
T1: RSV F glycoprotein (NUF4) (respiratory syncytial virus)
T1 chain 1: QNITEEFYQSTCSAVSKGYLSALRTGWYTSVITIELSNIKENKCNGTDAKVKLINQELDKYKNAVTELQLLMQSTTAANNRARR
T1 chain 2: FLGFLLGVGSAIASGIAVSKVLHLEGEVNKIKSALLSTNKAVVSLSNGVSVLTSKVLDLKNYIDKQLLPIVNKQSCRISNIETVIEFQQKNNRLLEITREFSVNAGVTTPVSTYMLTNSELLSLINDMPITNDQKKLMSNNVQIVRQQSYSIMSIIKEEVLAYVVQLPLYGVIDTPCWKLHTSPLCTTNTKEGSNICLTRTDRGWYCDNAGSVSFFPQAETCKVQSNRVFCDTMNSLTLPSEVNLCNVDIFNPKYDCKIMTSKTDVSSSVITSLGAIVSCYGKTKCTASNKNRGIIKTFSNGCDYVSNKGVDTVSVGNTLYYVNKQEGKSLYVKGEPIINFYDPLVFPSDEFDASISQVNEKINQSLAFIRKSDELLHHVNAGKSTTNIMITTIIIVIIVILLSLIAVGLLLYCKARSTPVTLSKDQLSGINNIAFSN

B1: A13c4 IgG (antibody, V domains shown)
VH: QVTLRESGPALVKPTQTLTLTCTFSGFSLSTAGMSVGWIRQPPGKALEWLADIWWDGKKSYNPSLKDRLTISKDTSKNQVVLKVTNMDPADTATYYCARDMIFNFYFDVWGQGTTVTVSS
VL: DIQMTQSPSTLSASVGDRVTITCSLSSRVGYMHWYQQKPGKAPKLLIYDTMYQSSGVPSRFSGSGSGTEFTLTISSLQPDDFATYYCFQGSGYPFTFGGGTKVEIKR
B2: A17d4(1) IgG (antibody, V domains shown)
VH: B1 VH
VL: B1 VL with S24L, L25P
B3: AFFF(1) IgG (antibody, V domains shown)
VH: B1 VH with G57D, S60D, D67S, D100S, F103T
VL: B1 VL with L25A, R28S, M51F, Y52K, Q53L, S54A, G92F
B4: A1e9 Fab (Fab, V domains shown)
VH: B1 VH with S60H, F105W
VL: DIQMTQSPSTLSASVGDRVTITCSLSSRVGYMHWYQQKPGKAPKLLIYDTFKLSSGVPSRFSGSGSGTEFTLTISSLQPDDFATYYCFQGSGYPFTFGGGTKVEIK
notes: also called Ale9
B5: A12a6 Fab (Fab, V domains shown)
VH: B1 VH with S60D
VL: B4 VL with L25A
B6: A13a11 Fab (Fab, V domains shown)
VH: B1 VH with G57D, S60H, F105W
VL: B4 VL with L25P, F51Y, K52R, L53H
B7: A13c4 Fab (Fab, V domains shown)
VH: B1 VH
VL: B4 VL with F51M, K52Y, L53Q
B8: AFFF(1) Fab (Fab, V domains shown)
VH: B1 VH with G57D, S60D, D67S, D100S, F103T
VL: B4 VL with L25A, R28S, S54A, G92F
notes: also called AHH(1)

What was measured:
Bac-F = Bac-F (respiratory syncytial virus); experiment: SPR (BIAcore), mAb vs Bac-F (1:1)
[1] = target: T2, recombinant C-terminally truncated RSV (A2 strain) F protein (RSV (A2 strain), UniProt P03420 26-524); experiment: SPR (BIAcore), IgG over immobilised F
T2 construct: extracellular domain; also called truncated F protein; extracellular domain of the F protein from RSV A2

[2] = target: T1, RSV F glycoprotein (NUF4); experiment: SPR (BIAcore), mAb vs NUF4 (1:1)
[3] = target: T1, RSV F glycoprotein (NUF4); experiment: ITC, NUF4 titrated into antibody, 35 C
Procedure: The binding thermodynamics of the antibodies were determined from ITC measurements using a Microcal, Inc. VP Titration Calorimeter. The VP titration calorimeter consists of a matched pair of sample and reference vessels (1.409 ml) enclosed in an adiabatic enclosure and a rotating stirrer-syringe for titrating ligand solutions into the sample vessel. The ITC measurements were performed at 25° C. and 35° C. The sample vessel contained the antibody in the phosphate buffer while the reference vessel contained just the buffer solution. The phosphate buffer solution was saline 67 mM PO₄ at pH 7.4 from HyClone, Inc. Five or ten μl aliquots of the 0.05 to 0.1 mM NUF4 solution were titrated 3 to 4 minutes apart into the antibody sample solution until the binding was saturated as evident by the lack of a heat exchange signal. […] This was attributed to a heat of dilution of the NUF4 titrant and was subtracted from the titrant heats obtained during the titration prior to analysis of the data.
A non-linear, least square minimization software program from Microcal, Inc., Origin 5.0, was used to fit the incremental heat of the ith titration (ΔQ (i)) of the total heat, Qₜ, to the total titrant concentration, Xₜ, according to the following equations (I),

[4] = target: T3, F protein of RSV (Long strain) (RSV (Long strain), UniProt P12568 26-574); experiment: cell-based or functional assay
[5] = target: T3, F protein of RSV (Long strain); experiment: cell-based or functional assay; remark: listed apart in the source
[6] = target: T1, RSV F glycoprotein (NUF4); experiment: SPR (BIAcore), mAb vs NUF4 (2:1)
[7] = target: T3, F protein of RSV (Long strain); experiment: cell-based or functional assay; remark: listed apart in the source
[8] = target: T2, recombinant C-terminally truncated RSV …; experiment: SPR (BIAcore), IgG over immobilised F; remark: listed apart in the source
RSV F protein (purified) = RSV F protein (purified) (respiratory syncytial virus); experiment: SPR (BIAcore), F protein immobilised
[9] = target: T2, recombinant C-terminally truncated RSV …; experiment: SPR (BIAcore), Fab over immobilised F
[10] = target: T3, F protein of RSV (Long strain); experiment: cell-based or functional assay; remark: listed apart in the source
[11] = target: T2, recombinant C-terminally truncated RSV …; experiment: SPR (BIAcore), Fab over immobilised F; remark: listed apart in the source
[12] = target: T2, recombinant C-terminally truncated RSV …; experiment: SPR (BIAcore), Fab over immobilised F; remark: listed apart in the source

Binder | Kd [1] [nM] | koff [1] [s⁻¹] | kon [1] [M⁻¹ s⁻¹] | Mean IC50 (Control) [4] [µg/mL] | Mean IC50 (Curve) [4] [µg/mL] | Microneutralization IC50, IgG [5] | koff (RSV F protein (purified)) | kon (RSV F protein (purified)) | Kd [9] [nM] | koff [9] [s⁻¹] | kon [9] [M⁻¹ s⁻¹] | IC50 [10] [nM] | Microneutralization IC50, Fab [5] | further results
B1 | 0.132 | 3.96e-05 | 300000 | 0.0375 | 0.0376 | 0.0376 µg/ml and 0.25 nM |  |  |  |  |  |  |  | Kd (Bac-F): 0.13 nM; fold in parentheses (palivizumab = 1) (Bac-F): 30 fold; Kd [2]: 0.75 nM; fold in parentheses (palivizumab = 1) [2]: 12 fold; koff [2]: 0.000272 s⁻¹; kon [2]: 365000 M⁻¹ s⁻¹; Ka [3]: 1.07e+08 M⁻¹; Kd [3]: 9 nM; ΔHb [3]: 16 kcal/mol; Kd [6]: 0.7 nM; fold in parentheses (palivizumab = 1) [6]: 446 fold; koff [6]: 0.000225 s⁻¹; kon [6]: 320000 M⁻¹ s⁻¹
B2 | 0.089 | 4.07e-05 | 456000 | 0.0354 | 0.0342 | 0.0342 µg/ml and 0.23 nM |  |  |  |  |  |  |  | Kd (Bac-F): 0.09 nM; fold in parentheses (palivizumab = 1) (Bac-F): 43 fold; Kd [2]: 0.73 nM; fold in parentheses (palivizumab = 1) [2]: 12 fold; koff [2]: 0.000362 s⁻¹; kon [2]: 499000 M⁻¹ s⁻¹; Ka [3]: 7.5e+07 M⁻¹; Kd [3]: 13 nM; ΔHb [3]: 16.3 kcal/mol; Kd [6]: 1.11 nM; fold in parentheses (palivizumab = 1) [6]: 281 fold; koff [6]: 0.000292 s⁻¹; kon [6]: 264000 M⁻¹ s⁻¹
B3 | ≤ 0.039 | ≤ 5e-06 | 127000 |  |  | 2.04 nM and 0.306 µg/ml | 0.000274 s⁻¹ and 0.000266 s⁻¹ and 0.000206 s⁻¹ | 108000 M⁻¹ s⁻¹ and 96000 M⁻¹ s⁻¹ and 124000 M⁻¹ s⁻¹ |  |  |  |  |  | Microneutralization IC50, IgG [7]: 0.306 µg/ml and 2.04 nM; koff [8]: ≤ 5e-06 s⁻¹; kon [8]: 127000 M⁻¹ s⁻¹
B4 |  |  |  | 0.125 | 0.157 |  | 0.000453 s⁻¹ | 790000 M⁻¹ s⁻¹ | 0.216 | 0.000113 | 523000 | 2.5 | 0.157 µg/ml and 3.14 nM | 
B5 |  |  |  | 0.031 | 0.0287 |  | 0.00023 s⁻¹ | 743000 M⁻¹ s⁻¹ | 0.422 | 0.000219 | 519000 | 0.62 | 0.0287 µg/ml and 0.57 nM | 
B6 |  |  |  | 0.102 | 0.12 |  | 0.00025 s⁻¹ | 735000 M⁻¹ s⁻¹ | 0.337 | 0.000229 | 680000 | 2.04 | 0.012 µg/ml and 2.4 nM | 
B7 |  |  |  | 0.0258 | 0.0264 |  | 0.00028 s⁻¹ | 781000 M⁻¹ s⁻¹ and 735000 M⁻¹ s⁻¹ | 0.172 | 0.000112 | 650000 | 0.52 | 0.0264 µg/ml and 0.53 nM | 
B8 |  |  |  |  |  |  | 0.000245 s⁻¹ and 0.000446 s⁻¹ and 0.000268 s⁻¹ | 212000 M⁻¹ s⁻¹ and 156000 M⁻¹ s⁻¹ and 186000 M⁻¹ s⁻¹ | ≤ 0.037 | ≤ 5e-06 | 134000 |  | 0.0715 µg/ml and 1.43 nM | Microneutralization IC50, Fab [7]: 0.0715 µg/ml and 1.43 nM; Kd [11]: ≤ 0.037 nM; koff [11]: ≤ 5e-06 s⁻¹; kon [11]: 134000 M⁻¹ s⁻¹; fold higher affinity than palivizumab Fab [12]: > 117 fold
